Measurements taken from patent US20220242939A1 (BIOARCTIC, published 2022).
Residue numbers refer to the chain shown, from its start. Values belong to the binder of their own block, whether it stands above or below them. Non-standard residues stand in square brackets, D forms with d. No end group written: not given here. Ahx = NCCCCCC(=O)O

Key:
[1] = molecular target: T1, A199 N-terminal neo-epitope peptide AGQPLQE-Acp-C (SEQ ID NO:55) conjugated to BSA (human, not fully specified (residue 9); printed as AGQPLQE-Acp-C; also: C-terminal Cys conjugated to BSA carrier); assay: direct ELISA after limiting dilution
T1 construct: BSA carrier
T1 peptide: AGQPLQE[Ahx]C

[2] = molecular target: T2, recombinant C-terminal ApoE fragment A199-HIS (ApoE-A199-H299-10xHIS) (human, UniProt P02649 217-317); assay: direct ELISA, A199-HIS coated at 0.1 µM
T2 construct: also called A199-HIS fragment
Method: (§1) Selectivity evaluation of purified monoclonal antibodies by direct ELISA: The direct ELISA described below was used to evaluate the binding selectivity of the purified monoclonal antibodies produced in Example 17.
(§2) The screening was performed according to standard ELISA protocols. Briefly, 1 μg/ml solutions of BSA-conjugated neo-epitope peptides and negative control peptide, and 0.1 μM recombinant C-terminal ApoE fragment and full-length ApoE (Abcam, cat. no. ab50243) were prepared by dilution in PBS. 50 μl/well were added to an ELISA half-area 96 well microtiter plate, and the plate was sealed with adhesive sealer and incubated over night at 4° C. After discarding the solution, the plates were blocked with 150 μl/well of protein-free blocking solution (Pierce) for 1 h at room temperature with shake (600-900 rpm). The plates were washed four times with washing buffer containing 0.28 mM NaH₂PO₄, 2.5 mM Na₂HPO₄, 150 mM NaCl, 0.1% TWEEN®-20 and 0.0075% Kathon CG. Purified monoclonal antibodies of interest were 3-fold serially diluted with a starting dilution at 3 μg/ml (mixed 1:2 with dilution buffer (PBS with 0.1% BSA and 0.05% TWEEN®-20)). An anti-ApoE C-terminal antibody was used as a reference antibody (ApoE E-8 mouse monoclonal, Santa Cruz Biotechnology, cat. no. sc-393302). 50 μl/well were added into the ELISA plates and incubated for 2 h at room temperature with shake (600-900 rpm). The plates were washed four times as described previously. […] After another wash (as described previously), 50 μl/well of K-Blue® aqueous substrate (Neogen) were added, and the reaction was stopped after 5-15 min with 50 μl/well of 0.5 M H₂SO₄. The optical density at 450 nm was read using an ELISA reader (Tecan).

[3] = molecular target: T3, A199 N-terminal neo-epitope peptide AGQPLQ-Acp-C (SEQ ID NO:51) conjugated to BSA (human, not fully specified (residue 8); printed as AGQPLQ-Acp-C; also: C-terminal Cys conjugated to BSA carrier); assay: direct ELISA, A199-BSA peptide coated at 1 µg/ml
T3 construct: BSA carrier; also called A199-BSA peptide
T3 peptide: AGQPLQ[Ahx]C
Method: as §1, §2

[4] = molecular target: T2, recombinant C-terminal ApoE fragment …; assay: SPR (Biacore 8K), A199-HIS amine-coupled on CM5, antibody as analyte, bivalent analyte fit (KD1)
[5] = molecular target: T2, recombinant C-terminal ApoE fragment …; assay: SPR (Biacore 8K), A199-HIS amine-coupled on CM5, antibody as analyte, bivalent analyte fit (ka1)
[6] = molecular target: T2, recombinant C-terminal ApoE fragment …; assay: SPR (Biacore 8K), A199-HIS amine-coupled on CM5, antibody as analyte, bivalent analyte fit (kd1)
[7] = molecular target: T4, full-length ApoE in human brain extract from Alzheimer's disease patients (human, UniProt P02649 19-317); assay: Western blot of AD brain RIPA 2% SDS extract; anti-A199 antibody at 2 ug/ml as primary antibody
T4 construct: mature; Endogenous protein on Western blot or in solution (IP); also called ApoE full-length protein
Method: RIPA 2% SDS brain extract containing approximately 60 μg total protein was mixed with 2×Laemmli sample buffer, boiled for 5 min at 95° C. and loaded onto SDS-PAGE gels (Bolt™ 12% Bis-Tris Plus 10 well, Thermo Fisher, cat. no. NW00120BOX). Gels were run for 30-40 min at 180 V, after which proteins were transferred from the gels onto nitrocellulose membranes using the Trans-Blot® Turbo™ system (Bio-Rad). […] Membranes were washed and incubated for 1 h at room temperature with the detection antibody anti-mouse-800CW (LI-COR, cat. no. 925-32210) diluted 1:25000 in Intercept® PBS Blocking Buffer (LI-COR) with 0.1% TWEEN®-20. Membranes were washed and images acquired using Odyssey® FC (LI-COR).

[8] = molecular target: T5, recombinant full-length ApoE4 (aa 1-299; SEQ ID NO:45; Abcam cat. no. ab50243) (human, UniProt P02649 19-317); assay: direct ELISA; proteins coated at 0.1 uM, BSA peptides at 1 ug/ml; antibody in 3-fold dilutions from 3000 ng/ml; blank reduced OD 450 nm
T5 construct: Bought protein; also called recombinant ApoE4 full-length protein
Method: as §1, §2

[9] = molecular target: T6, L198 N-terminal neo-epitope peptide LAGQPL-Acp-C (SEQ ID NO:52) conjugated to BSA (human, not fully specified (residue 8); printed as LAGQPL-Acp-C; also: C-terminal Cys conjugated to BSA carrier); assay: as above
T6 construct: BSA carrier; also called L198-BSA peptide
T6 peptide: LAGQPL[Ahx]C
Method: as §1, §2

[10] = molecular target: T7, G200 N-terminal neo-epitope peptide GQPLQE-Acp-C (SEQ ID NO:50) conjugated to BSA (human, not fully specified (residue 8); printed as GQPLQE-Acp-C; also: C-terminal Cys conjugated to BSA carrier); assay: as above
T7 construct: also called G200-BSA peptide; G200-peptide
T7 peptide: GQPLQE[Ahx]C
Method: as §1, §2

[11] = molecular target: T8, negative control peptide AATVGSLAGQPLQER-Acp-C (SEQ ID NO:53) conjugated to BSA (human, not fully specified (residue 17); printed as AATVGSLAGQPLQER-Acp-C; also: C-terminal Cys conjugated to BSA carrier); assay: as above
T8 construct: BSA carrier; also called 192-206 BSA-conjugated peptide
T8 peptide: AATVGSLAGQPLQER[Ahx]C
Method: as §1, §2

[12] = molecular target: 7C7, recombinant IgG2c antibody; assay: inhibition ELISA: antigen in solution varied, antibody 7C7 at 0.05 µg/ml, plate coated with G200-BSA peptide
Method: (§3) The pre-incubated samples were transferred (50 μl/well) to the blocked ELISA plates, and plates were incubated for 25 min at room temperature without shaking. Plates were washed as described above. Alkaline phosphatase conjugated anti-mouse IgG detection antibody (Mabtech, cat. no. 3310-4) was diluted 1:1000 and added to each plate (50 μl/well). The plate was sealed and incubated with shaking (900 rpm) for 45 min at room temperature and subsequently washed as described above. Alkaline phosphatase substrate (50 μl/well) was added to the plate and the optical density was read every 15 min at a wavelength of 405 nm for up to 120 min. The IC50 values were determined from a log inhibitor concentration response curve (FIG. 17).

[13] = molecular target: 17G4, recombinant IgG2c antibody; assay: inhibition ELISA: antigen in solution varied, antibody 17G4 at 0.05 µg/ml, plate coated with G200-BSA peptide
Method: as §3

[14] = molecular target: 23D5, recombinant IgG2c antibody; assay: inhibition ELISA: antigen in solution varied, antibody 23D5 at 0.05 µg/ml, plate coated with G200-BSA peptide
Method: as §3

[15] = molecular target: 28F2, recombinant IgG2c antibody; assay: inhibition ELISA: antigen in solution varied, antibody 28F2 at 0.05 µg/ml, plate coated with G200-BSA peptide
Method: […] of each synthetic ApoE peptide, recombinant C-terminal ApoE fragment G200-HIS and full-length ApoE4 were prepared by 4-fold dilution starting from 1000 ng/ml in 96 well storage plates (30 μl final volume). Each recombinant antibody to be tested was added (30 μl) to the serial dilutions of each of the synthetic ApoE peptides, G200-HIS or full-length ApoE4 at a final concentration of 0.05 μg/ml per well. Samples were pre-incubated for 45 min at room temperature with shaking (900 rpm).
as §3

[16] = molecular target: T9, 7B10, recombinant IgG2c antibody; assay: inhibition ELISA: antigen in solution varied, antibody 7B10 at 0.05 µg/ml, plate coated with G200-BSA peptide
T9 construct: also called 7610
Method: as §3

T4 sequence (P02649 19-317): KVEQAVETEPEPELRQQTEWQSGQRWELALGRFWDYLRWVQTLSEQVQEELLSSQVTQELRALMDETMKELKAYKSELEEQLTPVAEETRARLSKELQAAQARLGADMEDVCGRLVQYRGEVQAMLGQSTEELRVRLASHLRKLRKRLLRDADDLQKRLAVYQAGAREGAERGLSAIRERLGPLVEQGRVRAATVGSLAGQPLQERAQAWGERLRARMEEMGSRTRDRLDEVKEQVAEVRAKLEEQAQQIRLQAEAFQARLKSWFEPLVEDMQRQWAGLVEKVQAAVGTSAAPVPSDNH
T5 sequence (P02649 19-317 C130R limits assumed): as the sequence (P02649 19-317) above, with C112R counted along it
Chain of 7C7, recombinant IgG2c antibody (VH, as listed by the source, chain 1 of 2): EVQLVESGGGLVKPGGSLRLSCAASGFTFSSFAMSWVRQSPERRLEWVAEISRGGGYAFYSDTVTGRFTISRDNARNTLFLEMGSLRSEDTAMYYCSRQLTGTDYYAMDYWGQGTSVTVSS
Chain of 7C7, recombinant IgG2c antibody (VL, as listed by the source, chain 2 of 2): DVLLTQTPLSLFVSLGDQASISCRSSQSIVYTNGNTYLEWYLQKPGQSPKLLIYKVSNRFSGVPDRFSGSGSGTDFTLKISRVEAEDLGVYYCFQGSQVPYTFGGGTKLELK
Chain of 17G4, recombinant IgG2c antibody (VH, as listed by the source): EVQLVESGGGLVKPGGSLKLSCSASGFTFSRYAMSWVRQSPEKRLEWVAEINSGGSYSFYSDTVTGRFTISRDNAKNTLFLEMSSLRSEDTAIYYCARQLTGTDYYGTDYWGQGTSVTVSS
Chain of 28F2, recombinant IgG2c antibody (VH, as listed by the source): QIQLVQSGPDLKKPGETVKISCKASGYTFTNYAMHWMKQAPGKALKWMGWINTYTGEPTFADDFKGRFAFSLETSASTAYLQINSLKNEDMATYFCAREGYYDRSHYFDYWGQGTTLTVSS
Chain of 23D5, recombinant IgG2c antibody (VH, as listed by the source): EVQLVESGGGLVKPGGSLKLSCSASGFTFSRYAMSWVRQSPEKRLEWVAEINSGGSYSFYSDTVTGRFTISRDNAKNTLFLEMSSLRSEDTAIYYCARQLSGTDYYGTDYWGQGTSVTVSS
T9 sequence (VH, as listed by the source): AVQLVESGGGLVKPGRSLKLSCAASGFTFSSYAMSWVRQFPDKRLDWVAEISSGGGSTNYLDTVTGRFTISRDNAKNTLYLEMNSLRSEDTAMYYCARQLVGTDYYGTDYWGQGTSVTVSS

B1: 63F6, monoclonal anti-A199 antibody (antibody, IgG2b, V domains shown)
VH: QVQLQQPGTELVKPGASVKLSCKASGYTFTNYWMHWVKQRPGQGLEWIGNINPRNGGTNYNEKFKSKATLTVDKSSSTDYMQLSSLTSEDSAVYYCARGLYDYDFDYWGQGTTLTVSS
VL: DVLMTQTPLSLPVSLGDQASISCRSSQSIVHGNGNTYLQWFLQKPGQSPKLLIYKVSSRFSGVPDRFSGSGSGTDFTLKISRVEAEDLGVYYCFQGSHVPFTFGSGTKLEIK
binding result [1]: binds | EC50 [2]: 0.0018 µg/mL | EC50 [3]: 3.8 ng/mL | Kd [4]: 137 nM | kon [5]: 150000 M⁻¹ s⁻¹ | koff [6]: 0.0207 s⁻¹ | binding result [7]: no binding (tested: 2 ug/ml (text)) | binding result [8]: no binding (tested: 3000 ng/ml) | binding result [9]: no binding (tested: 3000 ng/ml)

B2: 67G3, monoclonal anti-A199 antibody (antibody, IgG2b, V domains shown)
VH: B1 VH with N31R, M34L, R54T, T58A, S66N, D79A, A97S, L100A, F105C
VL: B1 VL with S28R, G32S, T36I, F41Y, S58N, F101Y, S105G
binding result [1]: binds | EC50 [2]: 0.0035 µg/mL | EC50 [3]: 4.4 ng/mL | Kd [4]: 83 nM | kon [5]: 180000 M⁻¹ s⁻¹ | koff [6]: 0.0172 s⁻¹ | binding result [7]: no binding (tested: 2 ug/ml (text)) | binding result [8]: no binding (tested: 3000 ng/ml)

B3: 36A12, monoclonal anti-A199 antibody (antibody, IgG1, V domains shown)
VH: EVKLEESGGGLVQPGGSMKLSCVASGFTFSNYWMNWVRQSPEKGLEWIGEIKLKSNNYGTHYAESVKGRFTISRDDSKSSVYLQMNNLRAEDTGIYYCTRDTEVVAGAHWGQGTLVTVSA
VL: NIMMTQSPSSLAVSAGEKVTMSCKSSQSVLYNSNQKNYLAWYQQKPGQSPKLLIYWASTRDSGVPDRFTGSGSGTDFTLTISSVRAEDLAVYFCQQYLSSLTFGAGTKLELK
binding result [1]: binds | EC50 [2]: 0.0202 µg/mL | EC50 [3]: 5.1 ng/mL | binding result [7]: no binding (tested: 2 ug/ml (text)) | binding result [10]: no binding (tested: 3000 ng/ml) | binding result [8]: no binding (tested: 3000 ng/ml) | binding result [9]: no binding (tested: 3000 ng/ml) | binding result [11]: no binding (tested: 3000 ng/ml)

The remaining lines, values ahead:

binding result [1]: binds | EC50 [2]: 0.0397 µg/mL | EC50 [3]: 4.6 ng/mL | binding result [7]: no binding (tested: 2 ug/ml (text)) | binding result [10]: no binding (tested: 3000 ng/ml) | binding result [8]: no binding (tested: 3000 ng/ml) | binding result [9]: no binding (tested: 3000 ng/ml) | binding result [11]: no binding (tested: 3000 ng/ml)
B4: 38G9, monoclonal anti-A199 antibody (antibody, IgG1, V domains shown)
VH: B3 VH with I48V
VL: B3 VL with N32S, D61E, R85Q

IC50 [12]: 2.8 nM | IC50 [13]: 3 nM | IC50 [14]: 2.4 nM | IC50 [15]: 2.4 nM | IC50 [16]: 2.8 nM
B5: recombinant C-terminal ApoE fragment G200-HIS (ApoE-G200-H299-10xHIS) (other)
chain: GQPLQERAQAWGERLRARMEEMGSRTRDRLDEVKEQVAEVRAKLEEQAQQIRLQAEAFQARLKSWFEPLVEDMQRQWAGLVEKVQAAVGTSAAPVPSDNHHHHHHHHHHH
notes: also called G200-HIS fragment
